How the values were obtained:
Assay in all cases: cell_activity
Conditions in all cases: primary human T cells; as pair; two GMCSF TALEN constructs used, value not split by construct
[1] = system: GMCSF_Tal_1 TALEN right monomer (artificial)
[2] = system: GMCSF_Tal_2 TALEN left monomer (artificial)
[3] = system: GMCSF_Tal_2 TALEN right monomer (artificial)
[4] = system: GMCSF_Tal_1 TALEN left monomer (artificial)

CACTGTGGCCTGCAGCA (double strand) [GMCSF_Tal_1 right half-site]
activity (% reduction in GMCSF secretion) [1]: 90

TCCTGAACCTGAGTAGA (double strand) [GMCSF_Tal_2 left half-site]
activity (% reduction in GMCSF secretion) [2]: 90

TGAGATGGTAAGTGAGA (double strand) [GMCSF_Tal_2 right half-site]
activity (% reduction in GMCSF secretion) [3]: 90

TGTGGCTGCAGAGCCTG (double strand) [GMCSF_Tal_1 left half-site]
activity (% reduction in GMCSF secretion) [4]: 90
